B1: HEEH_KT_rd6_0790 (parent)
chain: SEEEEEEWRRAKERGEEIIILGILWKPNDEEAERRIKEALRRV

Variants of: B1
Experiment: folding stability dG (cDNA display proteolysis); higher = more stable
Conditions: PBS, room temperature

Folding stability dG [kcal/mol], by site and new letter:
E17: C 2.35 | K 1.74 | W 2.29 | P 2.5 | L 1.89 | Y 1.91 | M 2.02 | T 2.16 | G 1.53 | D 1.81 | R 1.7 | Q 2.02 | H 1.89 | V 2.08 | I 1.94 | S 2.18 | A 2.12 | N 1.95 | F 1.92
L24: H 1.75 | A 1.53 | G 0.898 | Y 1.72 | P 1.39 | I 1.69 | S 1.67 | K 2.14 | F 1.64 | N 1.34 | E 1.29 | M 1.79 | T 1.75 | Q 1.66 | R 1.95 | V 1.79 | D 0.729 | W 1.26
L21: Q 1.84 | Y 1.45 | E 1.28 | A 1.84 | W 1.26 | R 2.07 | I 1.47 | T 1.04 | G 1.27 | D 1.04 | F 1.97 | N 1.24 | S 1.24 | V 1.34 | K 1.66 | P 0.723 | M 2.35 | H 1.88
E13: T 1.77 | N 1.69 | K 1.86 | P 0.785 | S 2.1 | L 2.4 | W 1.78 | I 2.04 | F 1.77 | M 2.23 | Y 1.78 | D 1.93 | H 1.68 | A 2.22 | Q 2.15 | R 1.77 | G 1.49 | V 1.94
K12: L 1.86 | Q 1.9 | E 0.988 | N 1.3 | V 1.89 | S 1.44 | D 1.06 | T 1.59 | P 1.02 | I 1.97 | H 1.96 | M 2.37 | G 1.07 | W 2.43 | C 2.01 | R 2.07 | F 2.13 | Y 2.2 | A 1.59
I19: W 2.53 | H 1.43 | L 2.12 | Y 2.2 | D 0.997 | F 2.08 | M 2.01 | Q 1.69 | G 1.01 | R 1.77 | P 0.976 | N 1.55 | S 1.52 | A 1.33 | T 2.14 | E 1.85 | K 1.49 | V 2.17
P27: W 1.42 | N 1.22 | H 0.914 | D 1.35 | A 1.13 | F 1.41 | Q 1.2 | M 1.18 | K 1.12 | C 2.1 | S 1.02 | V 1.2 | R 0.846 | Y 1.22 | L 1.15 | I 1.27 | T 1.16 | G 1.21 | E 1.37
R14: M 1.88 | V 1.76 | K 2.12 | Y 1.68 | S 1.92 | E 1.68 | D 1.49 | T 1.79 | I 1.92 | F 1.67 | Q 1.83 | A 2.04 | H 1.67 | G 1.42 | P 1.09 | N 1.97 | L 2.05 | W 1.58
I18: G 0.605 | V 2.15 | W 1.67 | R 1.3 | L 1.39 | D 0.812 | E 0.975 | F 2.1 | K 1.68 | T 1.84 | Y 1.86 | P 0.472 | A 1.59 | M 1.42 | N 1.06 | S 1.17 | C 2.38 | H 1.29 | Q 1.3
W25: K 0.664 | S 0.662 | C 1.26 | M 0.967 | F 1.4 | N 0.423 | D 0.518 | R 0.67 | T 0.615 | Y 1.25 | A 0.981 | G 0.809 | V 0.885 | P 0.549 | E 0.532 | L 0.939 | I 1.01 | H 0.716 | Q 0.568
G15: L 1.6 | C 2.43 | W 1.68 | N 1.9 | A 1.39 | T 1.18 | V 1.32 | Y 1.44 | M 1.66 | K 1.6 | F 1.57 | H 1.53 | R 1.66 | S 1.61 | D 1.25 | P 1.03 | Q 1.81 | I 1.34 | E 1.5
I20: D 0.628 | Q 0.945 | P 0.587 | Y 1.5 | C 2.07 | H 0.981 | E 0.692 | M 1.28 | F 2.27 | S 0.816 | T 0.843 | L 1.35 | K 0.813 | V 1.84 | A 0.825 | G 0.748 | N 0.804 | W 1.17 | R 1.08
G22: P 0.681 | W 1.93 | M 2.3 | T 1.4 | Y 1.98 | S 1.19 | K 0.815 | N 1.18 | L 2.12 | Q 1.15 | R 0.712 | H 1.1 | F 2.59 | E 1.12 | V 2.1 | D 1.29 | A 1.37 | I 2.28
I23: G 0.931 | S 0.659 | T 1.16 | M 1.08 | Q 0.969 | D 0.764 | K 1.08 | W 0.765 | A 0.977 | Y 0.775 | R 0.853 | N 0.85 | E 0.981 | L 1.46 | F 1.26 | P 0.9 | H 1.2 | V 1.55
D29: M 1.05 | E 1.06 | G 1 | A 1.25 | H 1.28 | N 1.39 | F 1.28 | K 0.951 | L 1.01 | I 0.872
A11: M 1.94 | V 1.75 | R 1.62 | W 2.05 | Y 1.95 | P 1.03 | S 1.65 | Q 1.2 | L 2.14 | N 1.28 | T 1.26
K26: G 1.52 | D 1.26 | L 1.65 | S 1.99 | T 2.12 | P 1.26 | M 1.7 | N 1.6 | E 1.26 | F 1.51 | A 1.87 | I 2.02 | V 2.06 | H 1.46 | W 1.53 | Y 1.51 | R 2.4 | Q 1.64
N28: Q 1.82 | E 1.84 | G 2.81 | V 1.1 | P 1.34 | T 1.38 | A 1.67 | K 1.45 | L 1.61 | S 1.62 | I 0.872 | D 2.19 | Y 1.9 | F 2.1 | H 1.97 | R 1.71 | M 1.77 | W 2.05
E16: G 1.61 | N 1.71 | F 2.04 | D 1.95 | Y 1.9 | S 1.94 | P 1.15 | V 2.15 | M 1.93 | Q 2.05 | I 2.21 | L 2.28 | T 1.94 | A 1.7 | H 1.93 | W 2.03 | R 1.66 | K 1.96

— the MegaScale stability set (Tsuboyama et al. 2023)
